Data: patent US20040185460

T1: inactivated MKK4, P45985
T1 chain: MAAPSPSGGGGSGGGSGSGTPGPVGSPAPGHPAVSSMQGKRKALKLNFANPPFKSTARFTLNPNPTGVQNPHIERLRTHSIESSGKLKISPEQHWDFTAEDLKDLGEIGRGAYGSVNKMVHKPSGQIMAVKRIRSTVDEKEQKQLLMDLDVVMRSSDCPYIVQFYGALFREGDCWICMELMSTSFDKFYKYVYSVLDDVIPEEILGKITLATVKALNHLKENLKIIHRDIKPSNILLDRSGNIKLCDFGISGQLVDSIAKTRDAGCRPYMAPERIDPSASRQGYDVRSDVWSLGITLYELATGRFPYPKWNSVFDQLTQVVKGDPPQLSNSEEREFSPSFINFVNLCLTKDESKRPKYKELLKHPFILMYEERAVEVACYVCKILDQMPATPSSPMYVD


Columns and labels:
[1] = molecular target: GST-MKK4(K113A) [GST: P08515]
[2] = molecular target: myelin basic protein (UBI #13-104)
[3] = molecular target: GST-MKK7β1(K149A), O14733
inactivated MKK4, P45985 = molecular target: T1, inactivated MKK4, P45985

| Protein | phosphorylation of substrate coated on the plate (ELISA-based assay, time-resolved fluorescence) [1] | phosphorylation of myelin basic protein (radioactive counts, Multiscreen TCA in-plate assay) [2] | phosphorylation of substrate coated on the plate (ELISA-based assay, time-resolved fluorescence) [3] | phosphorylation of GST-JNK1β1(K55A) by activated MKK4 (phospho-specific JNK antibody, fluorescence) (GST-JNK1β1(K55A), P45983) | in vitro kinase cascade: phosphorylation/activation of MKK4, read as phosphorylated GST-JNK1β1(K55A) (phospho-specific JNK antibody, fluorescence) (inactivated MKK4, P45985) | phosphorylation of substrate coated on the plate (fluorescence units, ELISA-based assay with phospho-threonine antibody, time-resolved fluorescence) [1] | specific activity, ratio against GST-MLK7KD/LZ (ELISA-based phosphorylation assay) [1] | phosphorylation of substrate coated on the plate (fluorescence units, ELISA-based assay with phospho-threonine antibody, time-resolved fluorescence) [3] | specific activity, ratio against GST-MLK7KD/LZ (ELISA-based phosphorylation assay) [3] |
| --- | --- | --- | --- | --- | --- | --- | --- | --- | --- |
| baculoviral GST-MLK3KD (protein) LRLEEVIGIGGFGKVYRGSWRGELVAVKAARQDPDEDISVTAESVRQEARLFAMLAHPNIIALKAVCLEEPNLCLVMEYAAGGPLSRALAGRRVPPHVLVNWAVQIARGMHYLHCEALVPVIHRDLKSNNILLLQPIESDDMEHKTLKITDFGLAREWHKTTQMSAAGTYAWMAPEVIKASTFSKGSDVWSFGVLLWELLTGEVPYRGIDCLAVAYGVAVNKLTLPIPSTCPEPFAQLMADCWAQDPHRRPDFASILQQLEAL | both GST-MLK7 forms were less active than GST-MLK3KD (control enzyme) | Baculoviral GST-MLK3KD was used as the control enzyme in this analysis to show phosphorylation of myelin basic protein by a member of the mixed lineage kinase family | both GST-MLK7 forms were less active than GST-MLK3KD (control enzyme) | – | – | – | – | – | – |
| inactivated MKK4 (protein) MAAPSPSGGGGSGGGSGSGTPGPVGSPAPGHPAVSSMQGKRKALKLNFANPPFKSTARFTLNPNPTGVQNPHIERLRTHSIESSGKLKISPEQHWDFTAEDLKDLGEIGRGAYGSVNKMVHKPSGQIMAVKRIRSTVDEKEQKQLLMDLDVVMRSSDCPYIVQFYGALFREGDCWICMELMSTSFDKFYKYVYSVLDDVIPEEILGKITLATVKALNHLKENLKIIHRDIKPSNILLDRSGNIKLCDFGISGQLVDSIAKTRDAGCRPYMAPERIDPSASRQGYDVRSDVWSLGITLYELATGRFPYPKWNSVFDQLTQVVKGDPPQLSNSEEREFSPSFINFVNLCLTKDESKRPKYKELLKHPFILMYEERAVEVACYVCKILDQMPATPSSPMYVD | – | – | – | MKK4 was activated and was able to phosphorylate its protein substrate GST-JNK1β1(K55A) | – | – | – | – | – |
| baculoviral human GST-MLK7KD (protein) PANYVAPCRPAASPAPPPSRPSSPVHVAFERLELKELIGAGGFGQVYRATWQGQEVAVKAARQDPEQDAAAAAESVRREARLFAMLRHPNIIELRGVCLQQPHLCLVLEFARGGALNRALAAANAAPDPRAPGPRRARRIPPHVLVNWAVQIARGMLYLHEEAFVPILHRDLKSSNILLLEKIEHDDICNKTLKITDFGLAREWHRTTKMSTAGTYAWMAPEVIKSSLFSKGSDIWSYGVLLWELLTGEVPYRGIDGLAVAYGVAVNKLTLPIPSTCPEPFAKLMKECWQQDPHIRPSFALILEQLTAIEGAVMTEMPQESFHS | – | Both GST-MLK7KD and GST-MLK7KD/LZ were able to phosphorylate myelin basic protein | – | – | both GST-MLK7KD and GST-MLK7KD/LZ were able to phosphorylate MKK4 and as a consequence of this phosphorylation event, MKK4 was activated | both forms of baculoviral GST-MLK7 catalyzed the phosphorylation of the two MKK protein substrates, GST-MKK4(K113A) and GST-MKK7(K149A) | GST-MLK7KD displaying about 2× higher activity than GST-MLK7KD/LZ | both forms of baculoviral GST-MLK7 catalyzed the phosphorylation of the two MKK protein substrates, GST-MKK4(K113A) and GST-MKK7(K149A) | GST-MLK7KD displaying about 2× higher activity than GST-MLK7KD/LZ |
